Measured values as given in publication PMC6265462.

Target: T1, Pho7-DBD (279-339) (Schizosaccharomyces pombe, UniProt O13658 279-339)
T1 sequence: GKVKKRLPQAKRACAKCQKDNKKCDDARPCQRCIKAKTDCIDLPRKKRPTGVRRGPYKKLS
Test: crystal structure

B1: tgp1 crystal duplex (dsDNA)
DNA 1: TCCTTCGGACATTCAAATCA
DNA 2: GATTTGAATGTCCGAAGGAT
binding result: binds
